Measurements: the supplement of paper PMC12042874
± gives the uncertainty stated by the source.

Experiment: amyloid nucleation score (Sup35N fusion, yeast selection) (log enrichment); library NNK1; higher = more nucleation; inactive = no reads after selection
How it was run: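 The nucleation score, computed with DiMSum, is the log enrichment of output over input reads, centred on the mode score of non-aggregating sequences. Sequences with under 100 input reads were dropped. Reads were generated by Illumina sequencing of plasmid inserts from psi-negative yeast with Sup35N fused to peptides of 20 random codons, induced with 100 μM copper sulfate for 24 hours and grown 7 days at 30°C on medium lacking adenine and uracil.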

Question: For SKYDLISRANVLFVSANYRH, which amyloid nucleation score is on record?
Answer: The amyloid nucleation score was 0.511 ± 0.76.

Question: For SLACRVGKYNHSYLSSLV, which amyloid nucleation score is on record?
Answer: Its amyloid nucleation score is 0.583 ± 0.4.

Question: For SLAPLHLFERMGGRS, which amyloid nucleation score is on record?
Answer: Its amyloid nucleation score is 0.532 ± 0.86.

Question: Which amyloid nucleation score does the source give for SLAWSRMRCKFWSVSPSAFP here?
Answer: Its amyloid nucleation score is -0.352 ± 0.49.

Question: With SLCHAFYSVNNLAFCHSFTP as the substance, how does the amyloid nucleation score read?
Answer: Its amyloid nucleation score is 6.539 ± 0.061.

Question: For SLDLL, which amyloid nucleation score is on record?
Answer: The amyloid nucleation score was -0.244 ± 0.46.

Question: Which amyloid nucleation score does the source give for SLILG here?
Answer: Its amyloid nucleation score is 0.083 ± 0.3.

Question: Which amyloid nucleation score does the source give for SLMKELKF here?
Answer: Its amyloid nucleation score is -0.034 ± 0.73.

Question: Which amyloid nucleation score does the source give for SLNVVLFCRPTGVCSHGIGW here?
Answer: Its amyloid nucleation score is 1.91 ± 0.26.

Question: With SLQFLSKPHLLRESVSESVD as the substance, how does the amyloid nucleation score read?
Answer: Its amyloid nucleation score is 0.381 ± 0.35.

Question: For SLSMFLLTILTCYDGFIDIW, which amyloid nucleation score is on record?
Answer: The amyloid nucleation score was -0.372 ± 0.25.

Question: With SLVLSYRVASNIKNPMTLDY as the substance, how does the amyloid nucleation score read?
Answer: Its amyloid nucleation score is 1.24 ± 0.15.

Question: For SLWAYNPV, which amyloid nucleation score is on record?
Answer: Its amyloid nucleation score is 2.04 ± 0.38.

Question: Which amyloid nucleation score does the source give for SLWTLWGFSFGDT here?
Answer: The amyloid nucleation score was -0.458 ± 0.47.

Question: For SLYTKLAVPLGKWRIGYRLT, which amyloid nucleation score is on record?
Answer: Its amyloid nucleation score is 0.46 ± 0.58.

Question: For SMIDFIRSFLYHSY, which amyloid nucleation score is on record?
Answer: The amyloid nucleation score was -1.1 ± 0.5.

Question: Which amyloid nucleation score does the source give for SMMYKVSFGGGVFVLKLLVK here?
Answer: The amyloid nucleation score was 0.266 ± 0.3.

Question: With SMVSFII as the substance, how does the amyloid nucleation score read?
Answer: Its amyloid nucleation score is -0.278 ± 0.72.

Question: For SNAIDRAHPYRFGFCVNDVQ, which amyloid nucleation score is on record?
Answer: Its amyloid nucleation score is -0.279 ± 0.47.

Question: Which amyloid nucleation score does the source give for SNCFGSSIGNYFRYMFVAYW here?
Answer: Its amyloid nucleation score is 1.86 ± 0.47.

Question: For SNDCRMLWMIWKTGSACLDP, which amyloid nucleation score is on record?
Answer: The amyloid nucleation score was 0.271 ± 0.43.

Question: With SNFLFRCSIWDDMGGKCRSK as the substance, how does the amyloid nucleation score read?
Answer: The amyloid nucleation score was “inactive”.

Question: With SNILFLYRMKRALPNSSWEA as the substance, how does the amyloid nucleation score read?
Answer: The amyloid nucleation score was 0.152 ± 0.48.

Question: Which amyloid nucleation score does the source give for SNKFKPVWRVLMSRVSVEAW here?
Answer: The amyloid nucleation score was -0.133 ± 0.68.

Question: For SNLQWYRTKGGVGLVTVMWR, which amyloid nucleation score is on record?
Answer: The amyloid nucleation score was 0.981 ± 0.16.

Question: Which amyloid nucleation score does the source give for SNNVFMAVNSSQRIQQFMLA here?
Answer: Its amyloid nucleation score is 1.03 ± 0.14.

Question: With SNNYLLCGIDGEVL as the substance, how does the amyloid nucleation score read?
Answer: Its amyloid nucleation score is 1.07 ± 0.66.

Question: Which amyloid nucleation score does the source give for SNPYVWDVPLSRLWFVSWEL here?
Answer: Its amyloid nucleation score is 0.068 ± 0.65.

Question: Which amyloid nucleation score does the source give for SNQQLRWCECVYNGATGKVK here?
Answer: Its amyloid nucleation score is 1.35 ± 0.47.

Question: For SNSKK, which amyloid nucleation score is on record?
Answer: Its amyloid nucleation score is 0.009 ± 0.25.

Question: For SNSRPGSGYSLFERTRYRNE, which amyloid nucleation score is on record?
Answer: The amyloid nucleation score was 0.345 ± 0.77.

Question: For SNTDYCVSVPVLTVAFSVWA, which amyloid nucleation score is on record?
Answer: The amyloid nucleation score was -0.343 ± 0.51.

Question: With SNTSMHRLLLIIVGKNMNVV as the substance, how does the amyloid nucleation score read?
Answer: Its amyloid nucleation score is 0.261 ± 1.

Question: With SNWLM as the substance, how does the amyloid nucleation score read?
Answer: The amyloid nucleation score was 2.06 ± 0.53.

Question: Which amyloid nucleation score does the source give for SPAFPP here?
Answer: The amyloid nucleation score was 0.798 ± 0.79.

Question: Which amyloid nucleation score does the source give for SPGAWKHSNPDGDCNGLA here?
Answer: Its amyloid nucleation score is 0.525 ± 0.49.

Question: With SPGMWGMGVDNSKSGRWALR as the substance, how does the amyloid nucleation score read?
Answer: The amyloid nucleation score was 1.89 ± 0.28.

Question: For SPLVDLYDFRWRLESRYKNY, which amyloid nucleation score is on record?
Answer: Its amyloid nucleation score is 0.107 ± 0.61.

Question: Which amyloid nucleation score does the source give for SPPTMIETGTHKASSH here?
Answer: The amyloid nucleation score was 0.199 ± 0.57.

Question: Which amyloid nucleation score does the source give for SPRSLMKGVITTHIIG here?
Answer: Its amyloid nucleation score is 0.917 ± 0.4.

Question: For SPSKLGSE, which amyloid nucleation score is on record?
Answer: The amyloid nucleation score was 0.903 ± 0.56.

Question: Which amyloid nucleation score does the source give for SPTLARSVWFRCLCTANGRE here?
Answer: The amyloid nucleation score was 0.698 ± 0.93.

Question: With SQAETLYFYVCQVLRGQYYD as the substance, how does the amyloid nucleation score read?
Answer: Its amyloid nucleation score is 0.305 ± 0.32.

Question: Which amyloid nucleation score does the source give for SQAMTPNGVTSLLFTN here?
Answer: Its amyloid nucleation score is -0.236 ± 0.59.

Question: With SQCQFVMVDRNGYGTKLRNY as the substance, how does the amyloid nucleation score read?
Answer: Its amyloid nucleation score is -0.24 ± 0.36.

Question: Which amyloid nucleation score does the source give for SQGAMFVTFMFLEYVMPQPP here?
Answer: The amyloid nucleation score was 3.95 ± 0.089.

Question: For SQINWILYTSNFTLW, which amyloid nucleation score is on record?
Answer: Its amyloid nucleation score is -1.02 ± 1.7.

Question: For SQSIAVCMVKCNCDCVHIGE, which amyloid nucleation score is on record?
Answer: The amyloid nucleation score was 6.126 ± 0.05.

Question: Which amyloid nucleation score does the source give for SQTNSIISCLERFAGGLVLI here?
Answer: The amyloid nucleation score was 0.349 ± 0.55.

Question: Which amyloid nucleation score does the source give for SQVGALFDVPQSVNDSFKNM here?
Answer: The amyloid nucleation score was 0.399 ± 0.57.

Question: With SRCHQRTYEVIAEYDLSKTE as the substance, how does the amyloid nucleation score read?
Answer: The amyloid nucleation score was 0.223 ± 0.52.

Question: For SRFDGTNIVCSSGMWFCAWK, which amyloid nucleation score is on record?
Answer: Its amyloid nucleation score is 8.35 ± 0.045.

Question: For SRFDMLSRALRCMK, which amyloid nucleation score is on record?
Answer: Its amyloid nucleation score is 1.35 ± 0.34.

Question: For SRHSGGAYNIVTMVT, which amyloid nucleation score is on record?
Answer: Its amyloid nucleation score is 0.517 ± 0.33.

Question: For SRILRLLHTVHCDGVGERLR, which amyloid nucleation score is on record?
Answer: The amyloid nucleation score was -0.104 ± 1.1.

Question: With SRIYLLSDRSVFLLLYNYYR as the substance, how does the amyloid nucleation score read?
Answer: Its amyloid nucleation score is -0.167 ± 0.41.

Question: Which amyloid nucleation score does the source give for SRLAKLSFKQGNTTVCTKSS here?
Answer: Its amyloid nucleation score is -0.742 ± 0.62.

Question: With SRMGPGNYWANGKSFAARPP as the substance, how does the amyloid nucleation score read?
Answer: The amyloid nucleation score was -0.491 ± 1.4.

Question: Which amyloid nucleation score does the source give for SRRWNNDLGLFSRERKTTLV here?
Answer: Its amyloid nucleation score is -1.06 ± 1.7.

Question: Which amyloid nucleation score does the source give for SRSSGFAVTYSNTRTKKSKA here?
Answer: Its amyloid nucleation score is -1.77 ± 1.3.

Question: For SRVNDQCVLSSWR, which amyloid nucleation score is on record?
Answer: Its amyloid nucleation score is 0.47 ± 0.5.

Question: Which amyloid nucleation score does the source give for SRWTQS here?
Answer: The amyloid nucleation score was 0.201 ± 0.88.

Question: With SRYYASMYLGNYGWHVLLNW as the substance, how does the amyloid nucleation score read?
Answer: The amyloid nucleation score was -0.103 ± 0.23.

Question: Which amyloid nucleation score does the source give for SRYYFHFELFVWR here?
Answer: The amyloid nucleation score was 0.291 ± 0.7.

Question: For SSAELFREPFQVNRCNCEGW, which amyloid nucleation score is on record?
Answer: Its amyloid nucleation score is 0.774 ± 0.47.

Question: With SSAGMTRTKNGPPC as the substance, how does the amyloid nucleation score read?
Answer: Its amyloid nucleation score is 2.89 ± 0.082.

Question: Which amyloid nucleation score does the source give for SSDRAYVFCTRNMEVREGSK here?
Answer: The amyloid nucleation score was -0.835 ± 0.72.

Question: With SSEDAVRLLLIVIFFLTFKF as the substance, how does the amyloid nucleation score read?
Answer: The amyloid nucleation score was 0.778 ± 0.49.

Question: With SSEIDYVFMAPREV as the substance, how does the amyloid nucleation score read?
Answer: Its amyloid nucleation score is -0.06 ± 0.63.

Question: Which amyloid nucleation score does the source give for SSERYLASQPNSSPSPSIPT here?
Answer: Its amyloid nucleation score is -0.421 ± 1.2.
